Non-standard residues stand in square brackets, D forms with d. No end group written: not given here. pGlu = O=C1CC[C@@H](C(=O)O)N1

One data set relates to Rhizomucor miehei lipase. The settings on record: activity-related mutation in propeptide; cited from earlier work. An excerpt: The buried surface area between the propeptide and the mature enzyme is ∼1771.2 Å^2 (analyzed using PISA,[23] corresponding to a strong protein–protein interaction).[24] The most significant interactions between the propeptide and mature enzyme from the PISA analysis are given in Table S1 (Supporting Information). One of these interactions involves Leu81, which is one of the activity-related mutations identified in ref ([17]) and is a part of the hydrophobic cluster at the ...

Data set [1] deals with T1, mature Rhizomucor miehei lipase (Rhizomucor miehei, UniProt P19515 95-363).
T1 sequence (looked up): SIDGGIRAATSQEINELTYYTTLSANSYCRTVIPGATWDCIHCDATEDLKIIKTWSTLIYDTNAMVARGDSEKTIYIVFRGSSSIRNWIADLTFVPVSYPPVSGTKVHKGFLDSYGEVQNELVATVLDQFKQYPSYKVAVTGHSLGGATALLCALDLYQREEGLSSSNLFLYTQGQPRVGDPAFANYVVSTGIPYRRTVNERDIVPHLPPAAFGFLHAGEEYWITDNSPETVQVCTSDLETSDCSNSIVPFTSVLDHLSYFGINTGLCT
Nature of the data set: crystal structure; wild-type ProRmL sample, 10 mg/mL; 30% PEG8K, 0.1 M Na-cacodylate pH 6.5, 0.2 M ammonium sulfate; 293 K; molecular replacement with 3TGL. To be noted: both partners purified.

Data set [2] deals with T2, mature RmL (Rhizomucor miehei lipase) (Rhizomucor miehei, UniProt P19515).
T2 construct: mature RmL; 95–363; 29,537.7; 29,538.2; made in house; host or cells: Aspergillus oryzae
T2 sequence (P19515 whole entry, looked up): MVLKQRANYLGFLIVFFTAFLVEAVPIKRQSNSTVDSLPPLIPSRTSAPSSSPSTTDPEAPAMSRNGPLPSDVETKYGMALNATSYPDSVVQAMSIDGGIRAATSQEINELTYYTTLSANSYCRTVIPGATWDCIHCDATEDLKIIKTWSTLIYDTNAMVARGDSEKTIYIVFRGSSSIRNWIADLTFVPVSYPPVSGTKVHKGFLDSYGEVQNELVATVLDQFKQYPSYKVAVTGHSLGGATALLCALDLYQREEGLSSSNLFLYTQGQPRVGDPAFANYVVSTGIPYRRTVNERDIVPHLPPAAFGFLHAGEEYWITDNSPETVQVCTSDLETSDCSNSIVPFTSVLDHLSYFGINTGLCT
Nature of the data set: GLAD lipase assay: inhibition of mature RmL by propeptide. It counts as biochemical. The settings on record: isolated propeptide; RmL–propeptide molar ratio 1:64, 15 min incubation, 0.2 M HEPES, 1 mM CaCl2, 10 ppm Triton X-100, pH 8.5; substrate olive oil/4-methylumbelliferyl oleate on cellulose, detergent model B; room temperature; fluorescence 365/445 nm; Figure 4a. The procedure:
Inhibition of hydrolytic activity was determined by using the industrially relevant GLAD assay, measuring the release of 4-methylumbelliferone (4-MU) by purified mature RmL incubated with and without a propeptide (RmL–propeptide incubated at a molar ratio of 1:64) for 15 min in 0.2 M HEPES, 1 mM CaCl2, and 10 ppm Triton X-100 (adjusted to pH 8.5). As a substrate, we used cellulose cotton linters, Avicel PH-101 (Sigma-Aldrich, 11365), uniformly coated with a 4.5:1 mixture of olive oil (Sigma-Aldrich, O-1514) and 4-methylumbelliferyl oleate (oleic acid 4-methylumbelliferyl ester (Sigma-Aldrich, 75164): 4 mg/mL in n-hexane (Sigma-Aldrich, 15671)). The coated cellulose fibers were suspended in 0.2 M HEPES, 3 mM CaCl2, 0.5 mM MgCl2, and 10 ppm Triton X-100 mixed with 3.3 g/L detergent solution using detergent model B (model B composition: 1% (w/w) NaOH, 7.2% (w/w) LAS, 3% (w/w) SLES, 5.5% (w/w) soy and coco fatty acids, 6.6% (w/w) AEO, 3.33% (w/w) triethanol amine, 2% (w/w) Na-citrate, 0.5% (w/w) DTMPA, 6% (w/w) MPG, 3% EtOH, 1.7% (w/w) glycerol, 1% (w/w) sodium formate, 0.1% (w/w) PCA; adjusted to pH 8.5) and RmL −/+ propeptide. The enzyme activity at room temperature was followed by measuring the fluorescence (kinetic mode) every 30 s at an excitation wavelength of 365 nm and emission wavelength of 445 nm from 1 to 6 min. […]

For data set [3], the target named is T1, mature Rhizomucor miehei lipase. Nature of the data set: fluorescence polarisation; 0.9 uM A488-labelled peptide mixed with mature RmL at 0.0002-10 uM, in duplicate; 50 mM HEPES pH 7.5, 100 mM NaCl, 1 mM CaCl2; 30 min at room temperature; Langmuir 1:1 fit. To be noted: both partners purified.
A short description of data set [4]: Zymogram of native PAGE (lipase activity on olive oil plate). To be noted: native PAGE gel placed on agarose plate: 50 mM HEPES (pH 7), 0.625% polyvinyl alcohol, 1.9% (v/v) olive oil, 0.05% brilliant green; Figure 8C. It counts as biochemical. An excerpt: The compositions for native PAGE were as follows. Resolving gel: 12% acrylamide-bis-acrylamide; 0.4 M Tris (pH 8.8), 0.1% APS, 0.04% TEMED. Stacking gel: 5.1% acrylamide-bis-acrylamide; 0.25 M Tris (pH 6.8), 0.1% APS, 0.1% TEMED. Loading dye: 0.06 M Tris (pH 6.8), 0.01% bromophenol blue, 10% glycerol. Running buffer: 3 g/L Tris base, 14.4 g/L glycine. Gel (B) is stained with brilliant blue. Zymogram: After electrophoresis, the native PAGE was placed on an agarose/brilliant blue plate (4% Litex HSB agarose protein grade, 50 mM HEPES (pH 7), 0.625% polyvinyl alcohol, 1.9% (v/v) olive oil, and 0.05% brilliant green (Sigma)).

B1: L81V: activity-related propeptide mutation L81V of R. miehei lipase identified in ref 17 (protein, UniProt P19515 25-363, looked up, variant L81V)
pro-form: VPIKRQSNSTVDSLPPLIPSRTSAPSSSPSTTDPEAPAMSRNGPLPSDVETKYGMAVNATSYPDSVVQAMSIDGGIRAATSQEINELTYYTTLSANSYCRTVIPGATWDCIHCDATEDLKIIKTWSTLIYDTNAMVARGDSEKTIYIVFRGSSSIRNWIADLTFVPVSYPPVSGTKVHKGFLDSYGEVQNELVATVLDQFKQYPSYKVAVTGHSLGGATALLCALDLYQREEGLSSSNLFLYTQGQPRVGDPAFANYVVSTGIPYRRTVNERDIVPHLPPAAFGFLHAGEEYWITDNSPETVQVCTSDLETSDCSNSIVPFTSVLDHLSYFGINTGLCT
modifications: pro-form
In the case of B1, the “activity of the mutant” value in the data set with Rhizomucor miehei lipase was “increased activity”.

B2: Rhizomucor miehei lipase propeptide (cleaved propeptide) (domain or fragment, UniProt P19515 30-94, looked up)
chain: [pGlu]SNSTVDSLPPLIPSRTSAPSSSPSTTDPEAPAMSRNGPLPSDVETKYGMALNATSYPDSVVQAM
modifications: also: N-glycosylation (GlcNAc after EndoH), site not given here, hexose at O-glycosylation site, site not given here
Take B2: in data set [1], the binding result is “binds”.

B3: propeptide: Cleaved propeptide, separated from the mature enzyme, residues 30–94 (protein)
chain: [pGlu]SNSTVDSLPPLIPSRTSAPSSSPSTTDPEAPAMSRNGPLPSDVETKYGMALNATSYPDSVVQAM
modifications: also: N-glycosylation (GlcNAc after EndoH), site not given here, hexose at O-glycosylation site, site not given here
With B3, the “inhibition of lipase activity” value in data set [2] was “clear inhibition of activity”.

B4: propeptide fragment SDVETKYGMALNATSYC-A488 (peptide)
peptide: SDVETKYGMALNATSYC(A488)
B4: in data set [3], the equilibrium dissociation constant (Kd) was found to be 200 nM.

B5: mature RmL: the mature wild-type enzyme without propeptide, residues 95–363 (protein)
chain: T1 sequence (looked up)
For B5, in data set [4], the “lipase activity in zymogram at the band corresponding to mature RmL” value is recorded as “much stronger in mature RmL than in wild-type ProRmL”.

For orientation: Kd means the constant that tells how readily two partners part at equilibrium. Low values mean tighter binding, high ones weaker binding.

These data come from paper PMC6648591 (ACS Omega, 2019).
